The target in test [1] is T1, Human interleukin-18 (recombinant human IL-18) (human, UniProt Q14116 37-193).
T1 sequence: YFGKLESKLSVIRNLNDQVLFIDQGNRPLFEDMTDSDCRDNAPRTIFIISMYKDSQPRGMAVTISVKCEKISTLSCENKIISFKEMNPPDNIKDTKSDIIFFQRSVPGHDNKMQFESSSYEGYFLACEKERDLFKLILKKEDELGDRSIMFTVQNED
Briefly: cell-based or functional assay.

Test [2] addresses T1, Human interleukin-18 (recombinant human …). Briefly: SPR, Biacore T100, Protein A capture, 25 C, mean n = 4. On the procedure: (§1) The methodology was basically the same as for the method used in Example 4a above; Protein A was immobilised on a CM5 chip at densities of between 2000-6000 RU's by primary amine coupling. Runs were carried out in HBS-EP (Biacore™). The anti-IL-18 antibodies were captured to densities of between 100-500 RUs, human IL-18 was passed over this captured surface at concentrations between 16-0.0625 nM, with 0 nM concentration (i.e., a buffer only injection of captured antibody) used for double referencing. Regeneration after each injection of IL-18 was by mild acidic elution using two injections of 10 mM glycine, pH1.5. […] The binding curves obtained were analysed using the analysis software inherent to the T100 machine using the 1:1 model of binding. Runs were carried out at the temperatures indicated.
These experiments were carried out as described above. Table 6 details the kinetic parameters obtained. […] H1L2 has a better on-rate (ka) than H1L1.
(Surface plasmon resonance follows binding to a sensor surface in real time, without labels.)

The target is the same in test [3]. Briefly: SPR, Biacore 3000, antibody captured on Protein A, 25 C. The procedure: Biacore™ kinetic analysis of the humanised 2C10 antibodies was carried out on a Biacore™ 3000 instrument using Protein A capture of the antibodies in HBS-EP buffer (Biacore™). Briefly, Protein A was immobilised on a CM5 chip by primary amine coupling, using manufacturers recommended protocol, to densities around 2000-4000 resonance units (RU's). Humanised antibody was then passed over the Protein A surface and captured to levels of around 200-500 RU's, after a period of stabilisation, IL-18 (human or Rhesus) was passed over the captured antibody surface at defined concentrations and binding sensorgrams were obtained. […] All curves were double referenced against a buffer injection instead of IL-18 and the data was fitted to the 1:1 binding model using the global fit parameters in BiaEval 4.1. Off-rate ranking experiments were set up using the same Protein A capture method, however, only a single concentration of IL-18 was used (10 nM). Whilst the data was fitted using the same binding model as the kinetic analysis, since only one concentration of analyte was used on the off-rate is reported, this value is useful for ranking rather than giving an exact kinetic measurement and was used as a way of selecting which antibodies would be further investigated. […]

The target is the same in test [4]. Nature of the test: SPR, Biacore 3000, antibody captured on Protein A, 37 C. On the procedure:
(§2) Biacore™ kinetic analysis of the humanised 2C10 antibodies was carried out on a Biacore™ 3000 instrument using Protein A capture of the antibodies in HBS-EP buffer (Biacore™). Briefly, Protein A was immobilised on a CM5 chip by primary amine coupling, using manufacturers recommended protocol, to densities around 2000-4000 resonance units (RU's). Humanised antibody was then passed over the Protein A surface and captured to levels of around 200-500 RU's, after a period of stabilisation, IL-18 (human or Rhesus) was passed over the captured antibody surface at defined concentrations and binding sensorgrams were obtained. […] All curves were double referenced against a buffer injection instead of IL-18 and the data was fitted to the 1:1 binding model using the global fit parameters in BiaEval 4.1. Off-rate ranking experiments were set up using the same Protein A capture method, however, only a single concentration of IL-18 was used (10 nM). Whilst the data was fitted using the same binding model as the kinetic analysis, since only one concentration of analyte was used on the off-rate is reported, this value is useful for ranking rather than giving an exact kinetic measurement and was used as a way of selecting which antibodies would be further investigated.
(§3) Based upon these observations selected antibodies were investigated in greater detail for binding to human and Rhesus IL-18 at 37° C. The data shown in Table 4b for human IL-18 is the mean (and standard deviation) of six separate determinations.

Test [5] deals with T2, Rhesus IL-18 (rhesus (rhesus/cynomolgus)).
T2 construct: also called Rhesus/Cynomolgus IL-18; rhesus/cynomolgus IL-18
Described as above. The procedure: as §2, §3

Test [6] has as its target T1, Human interleukin-18 (recombinant human …). Nature of the test: SPR, Biacore T100, antibody captured on Protein A, 25 C. The procedure:
as §1
(§4) This experiment was carried out using the above method at various temperatures. […] Table 5 details the kinetic values used to create these figures.

Test [7] shares this target. Nature of the test: SPR, Biacore T100, antibody captured on Protein A, 32 C. On the procedure: as §1, §4
The target is the same in test [8]. Briefly: SPR, Biacore T100, antibody captured on Protein A, 37 C. On the procedure:
as §1, §4

In test [9] the target is T2, Rhesus IL-18. Nature of the test: Rhesus IL18 binding ELISA, antibody titrated, OD 490 nm. Background: In an ELISA, binding on a coated surface is turned into a signal by an enzyme label.
Test [10] deals with T1, Human interleukin-18 (recombinant human …). Briefly: ELISA, antibody on plate, human IL-18 captured, detected by 16D10; 37 C, in serum. The procedure:
(§5) ELISA was carried out with the three Humanised H1 variants; H1L1, H1L2 and H1L3 to assess binding to human IL-18 at room temperature and at 37° C. in both human serum and in block solution (PBS 0.05% TWEEN with 1% BSA (w/v)). The Humanised antibody variants were immobilised on Nunc Maxisorp 96-well plates at 2.5 µg/ml. Capture of 5 ng/ml of recombinant human IL-18 was carried out either at room temperature or 37° C. in human serum or block solution. Anti-IL-18 mouse monoclonal antibody 16D10 was added. The bound mouse antibody was detected using anti-mouse kappa peroxidase conjugate (Serotec MCA 1291P). Representative EC50 values generated from the study data are illustrated in Table 9.

Test [11] shares this target. Briefly: ELISA, antibody on plate, human IL-18 captured, detected by 16D10; room temperature, in serum; room temperature incubation, in presence of serum. On the procedure:
as §5

B1: H1L2 humanised anti-IL-18 antibody (antibody, human IgG1, kappa, V domains shown)
VH: QVQLVQSGAEVKKPGASVKVSCKVSGEISTGYYFHWVRQAPGKGLEWMGRIDPEDDSTKYAERFKDRVTMTEDTSTDTAYMELSSLRSEDTAVYYCTTWRIYRDSSGRPFYVMDAWGQGTLVTVSS
VL: DIQMTQSPSSVSASVGDRVTITCLASEDIYTYLTWYQQKPGKAPKLLIYGANKLQDGVPSRFSGSGSGTDYTLTISSLQPEDFATYYCLQGSKFPLTFGQGTKLEIKR
notes: Human IgG1 / kappa
Take B1: the “% change vs 2C10 (IC50, KG-1 bioassay)” value in test [1] was determined as 61.5%. Moreover, the Kd amounted to 0.0163 nM in test [2]; 0.0303 nM in test [3]; 0.197 nM in test [4]; 0.139 nM in the test with Rhesus IL-18 [5]; 0.0125 nM in [6]; 0.0189 nM in test [7]. In addition, the Kd in test [8] came to 0.0223 nM. Moreover, the “EC50 (read off the curve)” value with Rhesus IL-18 [9] was roughly 30 ng/mL. Besides, the EC50 in test [10] and in test [11] was 9.79 ng/mL each time.

As a reminder, the Kd is the equilibrium constant for the complex coming apart. As usually defined, the EC50 (read off the curve) is the concentration needed to bring the measured effect to its halfway point. Low readings indicate greater potency, high ones weaker potency. In general, EC50 refers to the midpoint of the concentration-response curve.
